# From patent US7740850B2, “PDGFRβ-specific antibodies” (ImClone, LLC, priority 2007, dated 2010)
# How the values were obtained:
# [1] = test system: Akt and p44/42 MAP kinase in D122 cells; assay: PDGF-BB-stimulated downstream signaling (Western blot); type: cell-based, mouse
# Description: To study the downstream signaling, the cell lysate from the above treatment were resolved by a 4-12% NuPAGE Bis-Tris gel. Phosphorylated Akt and p44/42 mitogen-activated protein kinase (MAPK) were detected using an anti-phospho-Akt and an anti-phospho-p44/p42 MAPK and p44/p42 MAPK, respectively (eBioscience, San Diego, Calif.).
# [2] = test system: blood vessels and pericytes in BxPC3 tumor xenografts; assay: Immunohistochemistry of tumor sections (CD31 / α-SMA double staining); type: in vivo, mouse; details: BxPC3 tumors, Day 34 post treatment
# Description: FIG. 5 represents results of immunohistochemical analysis of human xenografts after treatment with 1B3, DC101, or DC101 plus 1B3. On Day 34 (BxPC3 model, panel A to C) or 50 (NCI-H460 model, panel D to F) post treatment, six mice from each group were sacrificed and tumors were processed for IHC analysis. Tumors were sectioned and double staining for both blood vessels (anti-CD31) and pericyte/SMC coverage (α-SMA, panel B and E). Five digital immunofluorescence images of tumor periphery and tumor core from each section were acquired and quantified for total CD31^+ vessels (panel A and D), α-SMA^+ vessels (panel B and E), and the percentage of dual CD31^+/α-SMA^+ over total CD31^+ vessels (panel C and F). Two different quantitation methods were used to measure the degree of vascularity of individual tumor sections: vessel density (numbers of vessels/[…]) and percentage of vessel area (% vessel area over total tumor area). For statistic analysis, two-way ANOVA followed by Fisher's LSD method was used for multiple comparisons (Sigma Stat 3.1 Systat Software, Inc., Point Richmond, Calif.). *P<0.05 compared to the saline group. Open bars, tumor periphery; solid bars, tumor core. […]
# Immunofluorescence images (at 200× magnification) were acquired using EZ-C1 2.20 software through a digital camera connected to a confocal microscope (Nikon Eclipse TE2000U). Computer assisted morphologic quantification was performed using Image Pro Plus software (MediaCybernatics, Silver Spring, Md.) and analyzed from each section.
# Five digital images of tumor periphery and tumor core from each section were counted for total CD31^+ vessels, α-SMA^+ vessels, mature vessels (dual CD31^+ and α-SMA^+), and the percentage of dual CD31^+/α-SMA^+ vessels over total CD31^+ vessels. Two different quantitation methods were used to measure the degree of vascularity of individual tumor sections: vessel density (numbers of vessels/[…]) and percentage of vessel area (% vessel area over total tumor area). Computer assisted morphologic quantification was performed using Image Pro Plus software. […]
# hPDGFRβ = hPDGFRβ (Homo sapiens, UniProt P09619); assay: Antibody affinity determination (BIAcore, surface plasmon resonance); type: binding; details: one experiment
# Method: Antibody affinity determination. The binding kinetics of various Fab and IgG to mPDGFRβ were measured using a BIAcore 3000 biosensor (BIACORE, Inc., Uppsala, Sweden). Briefly, mPDGFRβ was immobilized onto a sensor chip and soluble antibodies were injected at concentrations ranging from 1.5 nM to 100 nM. Sensorgrams were obtained at each concentration and were evaluated using the program, BIA Evaluation 2.0. The affinity constant, Kd, was calculated from the ratio of dissociation rate (koff)/association rate (kon) (Lu, D. et al., 2002; Zhu, Z. et al., 1998; Loizos, N. et al., 2005).
# As determined by BIAcore analysis, 2C5 binds to hPDGFRβ with similar binding characteristics as 1B3 binds to mPDGFRβ. […] However, whereas 1B3 binds to murine PDGFRβ but not human PDGFRβ, 2C5 binds to both proteins. (FIG. 6).
# human PDGFRα = human PDGFRα (Homo sapiens, UniProt P16234); assay: Binding to PDGFRα
# m5β = biological target: T1, m5β (Mus musculus, UniProt P05622); assay: Epitope mapping; type: binding; details: ✓ / X, key not given
# T1 sequence (P05622 32-531 limits assumed): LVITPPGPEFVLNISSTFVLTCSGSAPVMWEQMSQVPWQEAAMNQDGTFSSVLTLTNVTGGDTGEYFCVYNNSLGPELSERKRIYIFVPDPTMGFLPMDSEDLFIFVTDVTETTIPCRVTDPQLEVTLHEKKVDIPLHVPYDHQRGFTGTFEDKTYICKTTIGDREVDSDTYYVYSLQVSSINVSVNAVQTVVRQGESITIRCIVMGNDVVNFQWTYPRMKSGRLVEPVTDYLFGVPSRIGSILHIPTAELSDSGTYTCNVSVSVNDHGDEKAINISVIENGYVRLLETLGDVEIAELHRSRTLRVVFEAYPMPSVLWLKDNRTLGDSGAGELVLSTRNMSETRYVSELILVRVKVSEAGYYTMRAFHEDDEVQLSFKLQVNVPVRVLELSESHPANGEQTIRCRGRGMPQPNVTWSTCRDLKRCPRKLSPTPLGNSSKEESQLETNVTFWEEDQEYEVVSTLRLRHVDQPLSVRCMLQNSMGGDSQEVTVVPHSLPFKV
# Method: (§1) 2C5 binds to domain 1 (D1) and domain 2 (D2) of PDGFRβ. Various chimeric constructs of PDGFRβ and PDGFRα were first made by domain swapping, starting from N-terminus to C-terminus with PDGFRβ domain(s) replacing PDGFRα domain(s). The PDGFRβ/α chimera were tested for the ability of 2C5 binding. Shorter versions of PDGFRβ, including D1D2, D2D3 and D1D2D3, were then made to confirm the 2C5 binding domains on PDGFRβ.
# β1-3 = assay: Epitope mapping, shorter version of PDGFRβ (D1D2D3); type: binding; details: ✓ / X, key not given
# Method: as §1
# Chain of human PDGFRα (P16234 24-1089): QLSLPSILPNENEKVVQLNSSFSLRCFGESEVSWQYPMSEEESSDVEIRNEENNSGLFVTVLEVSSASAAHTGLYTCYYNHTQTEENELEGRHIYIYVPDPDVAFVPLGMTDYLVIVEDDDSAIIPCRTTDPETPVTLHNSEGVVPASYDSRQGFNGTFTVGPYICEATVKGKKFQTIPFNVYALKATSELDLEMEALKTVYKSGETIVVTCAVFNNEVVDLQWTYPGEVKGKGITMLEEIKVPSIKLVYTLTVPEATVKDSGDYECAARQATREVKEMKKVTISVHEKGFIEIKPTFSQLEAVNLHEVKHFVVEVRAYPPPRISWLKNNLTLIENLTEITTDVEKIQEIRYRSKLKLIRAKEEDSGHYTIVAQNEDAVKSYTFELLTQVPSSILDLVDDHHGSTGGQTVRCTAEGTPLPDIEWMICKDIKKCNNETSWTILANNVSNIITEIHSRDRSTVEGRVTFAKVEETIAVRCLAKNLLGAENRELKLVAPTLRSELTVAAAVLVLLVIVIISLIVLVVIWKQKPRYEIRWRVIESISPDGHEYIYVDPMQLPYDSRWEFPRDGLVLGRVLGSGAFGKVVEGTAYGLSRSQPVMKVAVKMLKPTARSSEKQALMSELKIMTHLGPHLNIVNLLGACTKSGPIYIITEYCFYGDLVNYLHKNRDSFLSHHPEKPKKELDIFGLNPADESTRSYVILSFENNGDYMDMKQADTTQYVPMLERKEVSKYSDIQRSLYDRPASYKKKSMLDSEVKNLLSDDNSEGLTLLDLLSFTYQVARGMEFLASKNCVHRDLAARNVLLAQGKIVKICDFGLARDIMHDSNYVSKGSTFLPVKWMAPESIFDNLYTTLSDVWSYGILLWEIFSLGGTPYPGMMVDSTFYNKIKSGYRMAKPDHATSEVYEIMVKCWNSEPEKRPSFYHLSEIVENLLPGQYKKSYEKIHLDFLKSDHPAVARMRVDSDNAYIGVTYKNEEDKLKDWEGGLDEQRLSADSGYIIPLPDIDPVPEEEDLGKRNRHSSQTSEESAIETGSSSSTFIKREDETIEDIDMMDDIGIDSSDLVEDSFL
# Chain of hPDGFRβ (P09619 33-1106): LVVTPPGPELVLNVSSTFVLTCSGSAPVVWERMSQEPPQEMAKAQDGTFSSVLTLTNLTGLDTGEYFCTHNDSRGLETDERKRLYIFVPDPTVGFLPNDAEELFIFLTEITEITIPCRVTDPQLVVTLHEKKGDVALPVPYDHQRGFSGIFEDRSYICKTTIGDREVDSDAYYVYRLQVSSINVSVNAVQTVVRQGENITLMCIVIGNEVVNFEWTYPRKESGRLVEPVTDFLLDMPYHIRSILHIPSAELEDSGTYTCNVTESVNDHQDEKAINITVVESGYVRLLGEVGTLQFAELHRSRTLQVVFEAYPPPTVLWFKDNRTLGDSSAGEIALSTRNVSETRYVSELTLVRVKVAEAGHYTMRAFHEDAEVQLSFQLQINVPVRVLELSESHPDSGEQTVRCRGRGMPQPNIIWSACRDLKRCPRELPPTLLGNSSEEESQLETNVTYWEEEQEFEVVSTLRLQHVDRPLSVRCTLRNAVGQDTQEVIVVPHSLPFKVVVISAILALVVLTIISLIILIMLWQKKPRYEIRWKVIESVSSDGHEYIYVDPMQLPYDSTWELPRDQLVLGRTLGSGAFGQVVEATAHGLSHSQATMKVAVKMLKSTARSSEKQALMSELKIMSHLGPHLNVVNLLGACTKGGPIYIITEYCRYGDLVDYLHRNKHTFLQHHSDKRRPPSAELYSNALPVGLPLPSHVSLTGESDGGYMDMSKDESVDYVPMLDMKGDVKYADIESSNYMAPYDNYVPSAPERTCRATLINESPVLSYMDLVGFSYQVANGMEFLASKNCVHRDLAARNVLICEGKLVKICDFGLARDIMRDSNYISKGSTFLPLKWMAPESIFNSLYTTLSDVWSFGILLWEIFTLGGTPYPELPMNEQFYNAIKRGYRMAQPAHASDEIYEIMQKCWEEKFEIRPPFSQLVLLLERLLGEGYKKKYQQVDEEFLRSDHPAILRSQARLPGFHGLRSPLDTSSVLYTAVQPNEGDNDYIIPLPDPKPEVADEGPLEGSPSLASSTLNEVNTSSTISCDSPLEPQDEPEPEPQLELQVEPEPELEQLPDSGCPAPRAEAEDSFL
Molecule,inhibition of PDGF-BB-stimulated phosphorylation of Akt and p44/42 MAP kinase [1],CD31^+ vessel density ([2]; 40 mg/kg three times a week),α-SMA^+ vessel density / α-SMA staining ([2]; 40 mg/kg three times a week),percentage of CD31/α-SMA double positive (mature) vessels over total CD31^+ vessels ([2]; versus saline),Kd (hPDGFRβ),binding to human PDGFRα (human PDGFRα),binding to m5β (m5β),binding to β1-3 (β1-3)
"1B3: human anti-mouse PDGFRβ antibody from Fab phage display library, human κ/γ1 constant regions; SEQ ID NOS in Table 1 (antibody, listed as Homo sapiens, V domains shown, human kappa/gamma1 constant regions) VH: QVQLQESGGGLVKPGGSLRLSCAASGFTFSSYSMNWVRQAPGKGLEWVSSISSSSSYIYYADSVKGRFTISRDNSKNTLYLQMNSLRAEDTAVYYCAKGGRPLLVFDFWGQGTLVTVS VL: EIVMTQSPGTLSLSPGERATLSCRASQSVSSSYLAWYQQKPGQAPRLLIYDASKRATGIPARFSGSGSGTDFTLTISTLESEDSAVYYCQQRGYWPPITFGQGTRLEIKR",potently inhibited,no significant effect on overall tumor vessel density,reduced the α-SMA staining in tumor periphery,reduced percentage,0.0417 nM,did not bind,,
"2C5: PDGFRβ-specific human antibody binding both human and murine PDGFRβ; SEQ ID NOS in Table 1 (antibody, listed as Homo sapiens, V domains shown) VH: QVQLVQSGAEVKKPGSSVKVSCKASGGTFSSYAISWVRQAPGQGLEWMGRIIPILGIANYAQKFQGRVTITADKSTSTAYMELSSLRSEDTAVYYCARDMGSRNYYYFYWGQGTLVTVSS VL: EIVLTQSPATLSLSPGERATLSCRASQSVGRYLAWYQQKPGQAPRLLIYGASNRATGIPARFSGSGSGTDFTLTISSLEPEDFAVYYCQQRSNWPLTFGGGTKVEIK",potently inhibited,,,,0.0136 nM,does not bind,✓,✓
